Assay results taken from article PMC12819142, “Atomic models of the Toxoplasma cell invasion machinery” (Nature Structural & Molecular Biology, 2025).

B1: ICMAP2 (natural protein)
chain: MVTFKSGEVDEHHESFLRREPRSPSRSPSAVQSSWKPVCYIEEIDSLTTFPSSASCDSSSKTKSSRSLISTSLDQPRDSASSSSEPRQSGLLHVNAQDLSPSRPPESLYQTGYVRSPSSFDGTLSCVGEKTGVVRGKSGHPPLSFRSPRMQSVAHSEDRDRKGLTYSFDAYPPEVFSRWKGRSRTGESCGLVTSSRGRSPCSRSPPGRSFPRCVDPQTDRIEEASQNCLPQSSELHASEVLGPADPAACPTQKPTVEPDSSVAASVFCPGTQAESQQVPSLPTDAFSGGDPVRSQVGSKRSHLLEDIQGKTRCSAARAVIDFDASGIRSVVVSDLGGTPLRLSPYLDTLPRSNHPLVLSKAATSVPPYCSSSSENFSEARQGGESRLTGGAAPEGGKLKASAVLGGNPQPRSCPSGGTQAMGGKYQAEESPTRSVFRGKVTVPAAEVHTTQAAGCPSERKVGEFRCQTDTDTLRHFRKSLRSYSDSPKRPETNSLNQGRSGSSRIIGQLSDATFGCRDSMASVRGAFAPPTSTVSKSLRHDEAVLREQGIKVRQKDAIFLKGVEKRHLGMQAGRQDSKPRYGLESAASCNATGAGEDPSPGFRIAGRASSSICAGGSSGESMNSAFMRGLPGSASNVRLPQWMRDYGVEDPSLQTDGCSRNVVSTRHPGTCQYSSADARRPRMRVSAGAPANLTPYLWDENSDRDGDNSLEDISCGPPYRGEMTYSITHSGNSGNQLSSQLPPAPLSVPGDVGSFGFPVAHFVCSNCGATAVPPQCPTCGAVIVQFDGTTQIPVAYRTNGTDALGLASRAVLRNGDSRSVQFSGEADPQSRSYAPYDASPSRSRGPSASRRSHVHSSRQERRELSRGEAETERCTAGTARRSGMVAVTAKKSGPPSRQRLVASSGPSLPSTKKLASQVWGSPRVCAILCSFLGLPQLLTIRRCSKNLLVAAQFEMRYVLYGTLQQLLREEETSKKATSSRPKSCEPPSARNREGRGRTLTPGVASTASARDRSLPACPFNAQTLTRLLELSPAELTALKNGQLPDRRVADAKTPRPEELRARASRLRRLHAERVEEQRRRVSARTSGKRVDREATEPVLVGLDEEMQLRREMQLQHEEELLMRERRLQQQECELFKKQQEIWLQETQQRLRQNITRNGRPHFAVPEPAALSGAGASFPCAHPGGWQKRHVGFDDDLVKGPEIDYESEPPSFRRLRHSFLKLWNYNEAQFKAALYRHAFSSFPAYNYDTTAILCRCIYQLCADATSALPLNSILMLLTDRQSYLWRRMARLSGYVICSFTLNGCRREIGPSMPTTIQRVVPIPLDDGCWDGGRSRGSHRATPSRGRGGASRVGREFGDDSSEDPIPPFCWKEGIRGAVLESIELKLAKLSEEFIDEFVLYGRQQGLLLQLQGADSTVNGRLLATTLRRFCKQPEDRYVLMDLYEWLAAAMTFSQKCIKAKIEAAKRASPSPQCRIARPCTGRLQAFPPYERSEGRYGGRSTTPAFGSSVRGRSGCPGRVETPGATSAMTRGRSIARVSMGARRGVVEDSVHSIAYENALSSRTKSRERHADTPTRSRLVLRGNRAADFQRPVRGRSPDSSANHTGVFGRRSDGKLSTQSGVRSSSASRSRLTNQVSSGLTAREAAALCRLLQNQGKILEEVKQILNNMSAPGRRHTRVP
notes: source: endogenous, isolated conoids of T. gondii tachyzoites (CHAPS lysis, sonication, α-chymotrypsin)
B2: SAS6L (natural protein)
chain: MATNFGFGGGASGCTDSVNFLAQVDTSAIDEMDPSLADGHTLVYSREVPFEIRLQETGSSLPGDVGRLEPIRVKILILGEETNPQHVRVELTSENDLFLNYTHALNEDLFRQMQERQKLMIEFGDYPSVLIKMLNSCIKEPHCFLAVLIMHTNGKARLDFIQSMEYKFIELLCLDCVQSTEEFTRRDMTFRYNALKSKLALLQARLHDIGCLLKLKSPSLLLHLQKAAQQQAHRRQQQVAAAAPIPGKLRAPGTTEGASTRFL
notes: as for B1
B3: CF1 (natural protein)
chain: MQPLAREVSRLPRSGPLGPVAAKKDDKTFIPTNVRVSPGEKNDRVVKTEKIDDSTDGSGSHDGPRNLETQLEALTREVRELTLRVQEEKEMKELLNSQLNDAYEELADARSEHRVRGFAGASGARLRGVRGLPAFEARWMEPEHPTAQTAIRSQQEFELLLQEERARRHTMFEQYERHMKVMRKNHHKEKLETKKKVLSQVEFLIKKYRRLASDAVAVAKRERERVAEERKRARELAERACKNFEADLKGRTKTALEQYRRLVQEAHTAAKQEREELHNKCKELQETVDNERREFDTLIVREAEAKMAKFRASYARMKQQTEEERRQYGVMMHEIAKRVEKECAEYEEFVIRTMRDLLQSKGVEMTESGLRDFFQKKREEMRPSGEGHSSTDGLVTVKYRFQAADPEDLQ
notes: as for B1
B4: ICMT-associated protein 1 (ICMAP1) (natural protein)
chain: MMADLTLEPRGAGASRYLMTDLEDLDSSEGNSLVPYSRLGKSGNTDANLYSTPDMTTRYPGSRGLLRDDSRGSGGLDDPMGLPMRSLSPKDLGGRGGPRLSPAELKAQVRLRNMCGKPLRPDDVLVTRILTGEKSYWEALDEMRNLCASLTVENEKLKTGNAKATTKALEVEQKSRAEIRRLQTLQRVTRDELEMKLQDLTAENVRLRQSRDVERALQEQKVHMQKQIERLKQDSEEKGRLAAQRAREIHHLKEETQRSTDEAEALKGRVESLQAKLAEAISQKNLLLIRVKKDIRDIQDSAQQAREAVLAEKARSEQQAAEVEKHAQMQLQLHERKIRDLQQTVASEESQGEYYRRKYEEASKQLAKLKTQFDSTQNKTETDIALRERKLQELSESLNAAQKARDRSAQELNAMRSKYNILRGELEKAEQRRNHAEQEAIRAGAQVETMDVGRSTLEAKVSELQLERSGLMEKLQLAEKEVSELREAKNKIKASLDLAYQKEQFRLLEENSRIGTDLKVAQQQLDTVTRQKEQLQTDAERLRGAEEELREMQVDFLKMKTTLQLVQGRPCDNAKVVADGVVNALRAYAELKKATETQEQSMASLSQQNQALSQKANEAATLTREMLTLESENRSLNEHIASLTAELRKIGDQQTALQLEKEAQDEAFRQQIERVQKEAEARRRELDHQLEQAKERHRQETTKLTAELDRVKKLHDAEKKRTSELQVQVEDVKAEATQHTEGLEKRYQEQLRERNAQIEALSSEREEFAAETRAEIQQLKKTHADALKAARADRDKVLAERESHYQQQLEEMRTRQEQHAASQHHQRQELQQRLQQLELSFQETEANLRREVDAKAADVRSLQGQKEKLERELGAVKERLEDEQRSADRNLERVKRERQQDVERLQKELDDATRLAAEAERTAAEKIQSLETDVKNTRDQLKKANAGSEEKESLLEASKTRYADLENKHNDVVQKFNDLSEENKKLKKDLSAAADDKEAKEKQIKKLTDAQARDQQEIAAIKQKEREAIAAGDRLNAEIEKLKAEHRSAELKLKNDIDAVTTDKEAVEAKLAQVQKMHKEEAEALNSRIAQLTKEKADLEKAQRNLEEEKAALEQEKRKAASEAKVKQDLLEQKIAELQKQNQNLENGLRAAKAAGAAAAARPAPGAPGQAPPAAQAPQAGAPPAEEGGLFSWWGGGAAEAPPEAPASSAGAPAEAAPAPAAEAESSSWGWW
notes: as for B1

Columns and labels:
[1] = biological target: the molecule itself; experiment: cryo-EM structure; intraconoidal microtubule ICMT-1, native, from isolated T. gondii conoids; single-particle analysis, 3.3 Å
[2] = biological target: the molecule itself; experiment: cryo-EM structure; conoid fibers (CF), native, from isolated T. gondii conoids after sonication and α-chymotrypsin; single-particle analysis, 2.9 Å (8-nm repeat) and 3.1 Å (24-nm repeat)

Row | Protein | stoichiometry N [1] | stoichiometry N [2]
1 | B1 | 2 | 
2 | B2 |  | 2
3 | B3 |  | 2
4 | B4 | 2 | 
